The values below come from patent US20260258143A1 (ODYSSEY THERAPEUTICS, published 2026).

In this assay the target is T1, human CD25-extracellular domain (CD25-ECD) (human, UniProt P01589 22-240).
T1 construct: also called human CD25-ECD; hCD25 ECD
T1 sequence: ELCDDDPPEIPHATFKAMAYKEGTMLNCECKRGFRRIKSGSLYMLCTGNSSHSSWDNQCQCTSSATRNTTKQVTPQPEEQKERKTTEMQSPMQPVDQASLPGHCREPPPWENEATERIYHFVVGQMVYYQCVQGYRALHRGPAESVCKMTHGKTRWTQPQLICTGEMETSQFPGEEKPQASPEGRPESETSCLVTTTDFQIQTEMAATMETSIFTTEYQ
The experiment in a line: SPR, V-body on chip, human CD25-ECD 500 nM then IL2-Fc 1000 nM. The method, then:
The sensorgrams display IL2-Fc competition: association of human CD25-extracellular domain (ECD) to the V-body followed either by additional binding by IL2-Fc, Indicating an unoccupied epitope (non-overlapping epitopes), or no IL2-Fc binding, indicating epitope blocking (overlapping epitopes), and a buffer control, association and dissociation of human CD25-ECD in the absence of IL2-Fc. Human CD25-ECD was injected (500 nM) under physiological conditions (50 mM HEPES pH 7.4, 150 mM NaCl, 0.1% (w/v) BSA, 0.05% (v/v) Tween20, 25° C.) followed by human IL2-Fc (1000 nM). V-body ODY-83B03Hu1 was identified as a ligand competitive binder. ODY-83B05Hu1 and ODY-83F07Hu1 were identified as non-competitive binders.
In general terms: Surface plasmon resonance follows binding to a sensor surface in real time, without labels.

B1: ODY-83B05Hu1 (VHH)
VHH: EVQLLESGGGLVQPGGSLRLSCAASGFTLDYYAIGWFRQAPGKEREGVLSISSTDGRTYYADSVKGRFTISRDNPKNTVYLQLNSLRPEDTAVYYCAAKRLGPMVHRYSLEVLTPLFLDEYDYWGQGTQVTVSS
notes: Captured on an SPR chip spot; also called ODY-83B05 humanized VHH; ODY-83805Hu1
Regarding B1, the binding result is “binds”.

B2: ODY-83F07Hu1 (VHH)
VHH: EVQLLESGGGLVQPGGSLRLSCAASGFTLDYYAIGWFRQAPGKEREGVLSISSTDGRTYYADSVKGRFTISRDNPKNTVYLQLNSLRPEDTAVYYCAAKRLGPMVHQYSLEVLTPLFLDEYDYWGQGTQVTVSS
notes: Captured on an SPR chip spot; also called ODY-83F07 humanized VHH
Turning to B2, the binding result was “binds”.

B3: ODY-83B03Hu1 (VHH)
VHH: EVQLVESGGGLVQPGGSLRLSCAASGMPLVAMGWYRQAPGKQRELVASISSGGNTGYADSVKGRFTISRDNAKKTVYLQMNSVRPEDTGVYYCNIYRSQVPPTRYSWGQGTQVTVSS
notes: Captured on an SPR chip spot; also called ODY-83B03 humanized VHH
Turning to B3, the binding result is recorded as “binds”.
